Laboratory results taken from publication PMC2562391.

Columns and labels:
Experiment in all cases: FRET or BRET; two-photon FLIM-FRET in living HeLa cells co-transfected with 0.5 μg of each plasmid, 24 h post transfection; eGFP fusion as donor, mCherry or mCherry fusion as acceptor; E from the donor lifetime with and without acceptor; read at the nuclear envelope, in the cytoplasm, in the nucleus and over the whole cell
[1] = target: I60A Vpr-mCherry (HIV-1 (strain LAI))
[2] = target: Q3R Vpr-mCherry (HIV-1 (strain LAI))
[3] = target: R77Q Vpr-mCherry (HIV-1 (strain LAI))
[4] = target: R90K Vpr-mCherry (HIV-1 (strain LAI))
[5] = target: Vpr-mCherry (HIV-1 (strain LAI))
[6] = target: mCherry-Vpr (HIV-1 (strain LAI))
[7] = target: W54G Vpr-mCherry (HIV-1 (strain LAI))

I60A-Vpr-eGFP (natural protein)
FRET efficiency E (nucleus) [1]: 7%
FRET efficiency E (whole cell) [1]: 6%

Q3R Vpr-eGFP (natural protein)
FRET efficiency E (whole cell) [2]: 19%

R77Q Vpr-eGFP (natural protein)
FRET efficiency E (whole cell) [3]: 22%

R90K Vpr-eGFP (natural protein)
FRET efficiency E (whole cell) [4]: 18%

Vpr-eGFP (natural protein)
FRET efficiency E (cytoplasm) [5]: 23%
FRET efficiency E (nuclear envelope) [5]: 27%
FRET efficiency E (nucleus) [5]: 19%
FRET efficiency E (whole cell) [5]: 23%
FRET efficiency E (cytoplasm) [6]: 14%
FRET efficiency E (nuclear envelope) [6]: 17%
FRET efficiency E (nucleus) [6]: 13%
FRET efficiency E (whole cell) [6]: 15%

W54G Vpr-eGFP (natural protein)
FRET efficiency E (whole cell) [7]: 16%

eGFP-Vpr (natural protein)
FRET efficiency E (cytoplasm) [5]: 9%
FRET efficiency E (nuclear envelope) [5]: 13%
FRET efficiency E (nucleus) [5]: 6%
FRET efficiency E (whole cell) [5]: 9%
FRET efficiency E (cytoplasm) [6]: 7%
FRET efficiency E (nuclear envelope) [6]: 13%
FRET efficiency E (nucleus) [6]: 6%
FRET efficiency E (whole cell) [6]: 8%
